# Measured values as given in article PMC7382501 (Nature Communications, 2020).
# B1: FasR from Mycobacterium tuberculosis, full-length (hexa-histidine-TEV-tagged construct, tag cleaved) (natural protein)
# chain: MSDLAKTAQRRALRSSGSARPDEDVPAPNRRGNRLPRDERRGQLLVVASDVFVDRGYHAAGMDEIADRAGVSKPVLYQHFSSKLELYLAVLHRHVENLVSGVHQALSTTTDNRQRLHVAVQAFFDFIEHDSQGYRLIFENDFVTEPEVAAQVRVATESCIDAVFALISADSGLDPHRARMIAVGLVGMSVDCARYWLDADKPISKSDAVEGTVQFAWGGLSHVPLTRS
# B2: His-tagged FasR (FasRwt, from pET28_fasRH) (natural protein)
# chain: MSDLAKTAQRRALRSSGSARPDEDVPAPNRRGNRLPRDERRGQLLVVASDVFVDRGYHAAGMDEIADRAGVSKPVLYQHFSSKLELYLAVLHRHVENLVSGVHQALSTTTDNRQRLHVAVQAFFDFIEHDSQGYRLIFENDFVTEPEVAAQVRVATESCIDAVFALISADSGLDPHRARMIAVGLVGMSVDCARYWLDADKPISKSDAVEGTVQFAWGGLSHVPLTRS
# notes: not shown: His6, N-terminal, kept
# Target: the molecule itself
# Assay: SEC
row,Protein,stoichiometry N
1,B1,2
2,B2,2
